Data: publication PMC2366074

Molecular target: T1, inositol monophosphatase (IMPase) (UniProt P29218)
T1 sequence: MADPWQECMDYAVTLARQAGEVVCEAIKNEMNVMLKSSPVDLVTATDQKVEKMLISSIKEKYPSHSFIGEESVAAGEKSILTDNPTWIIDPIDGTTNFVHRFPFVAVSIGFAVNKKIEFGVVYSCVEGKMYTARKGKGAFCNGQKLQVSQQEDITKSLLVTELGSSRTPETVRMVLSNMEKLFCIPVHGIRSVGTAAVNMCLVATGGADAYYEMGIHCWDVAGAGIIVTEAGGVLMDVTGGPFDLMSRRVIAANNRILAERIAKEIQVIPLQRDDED

B1: recombinant calbindin (natural protein)
chain: MAESHLQSSLITASQFFEIWLHFDADGSGYLEGKELQNLIQELQQARKKAGLELSPEMKTFVDQYGQRDDGKIGIVELAHVLPTEENFLLLFRCQQLKSCEEFMKTWRKYDTDHSGFIETEELKNFLKDLLEKANKTVDDTKLAEYTDLMLKLFDSNNDGKLELTEMARLLPVQENFLLKFQGIKMCGKEFNKAFELYDQDGNGYIDENELDALLKDLCEKNKQDLDINNITTYKKNIMALSDGGKLYRTDLALILCAGDN
Binder B1 has an IMPase activity in brain homogenates (Pi release from inositol-1-phosphate) with 20 uM recombinant calbindin of 1.66 fold.
